# Assay results taken from patent publication US20110118131A1 (published 2011).
# T1: Ep-CAM (UniProt P16422 24-265, limits assumed)
# T1 construct: Antigen of the Biacore analysis of ING-1 variants
# T1 sequence (looked up): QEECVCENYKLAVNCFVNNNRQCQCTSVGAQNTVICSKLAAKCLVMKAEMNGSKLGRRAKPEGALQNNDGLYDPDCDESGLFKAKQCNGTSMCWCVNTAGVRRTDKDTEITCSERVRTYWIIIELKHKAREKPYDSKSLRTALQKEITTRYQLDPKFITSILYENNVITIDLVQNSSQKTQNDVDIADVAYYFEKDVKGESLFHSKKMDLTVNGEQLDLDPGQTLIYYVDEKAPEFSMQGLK
# Target: T1, Ep-CAM
# Experiment: Biacore, Fab periplasmic extract
Binder,binding result,fold difference in affinity vs original [fold]
"ING-1 heavy chain N52R (Fab, V domains shown) VH: QIQLVQSGPELKKPGETVKISCKASGYTFTKYGMNWVKQAPGKGLKWMGWIRTYTEEPTYGDDFKGRFAFSLETSASTANLQINNLKSEDTATYFCARFGSAVDYWGQGTSVTVSS VL: DIVMTQAAFSNPVTLGTSGSISCRSSKSLLHSNGITYLYWYLQKPGQSPQLLIYQMSNLASGVPDRFSSSGSGTDFTLRISRVEAEDVGVYYCAQNLELPRTFGGGTKLEMKR",no binding,–
"ING-1 heavy chain N52S (Fab, V domains shown) VH: QIQLVQSGPELKKPGETVKISCKASGYTFTKYGMNWVKQAPGKGLKWMGWISTYTEEPTYGDDFKGRFAFSLETSASTANLQINNLKSEDTATYFCARFGSAVDYWGQGTSVTVSS VL: DIVMTQAAFSNPVTLGTSGSISCRSSKSLLHSNGITYLYWYLQKPGQSPQLLIYQMSNLASGVPDRFSSSGSGTDFTLRISRVEAEDVGVYYCAQNLELPRTFGGGTKLEMKR",no binding,–
"ING-1 heavy chain N52W (Fab, V domains shown) VH: QIQLVQSGPELKKPGETVKISCKASGYTFTKYGMNWVKQAPGKGLKWMGWIWTYTEEPTYGDDFKGRFAFSLETSASTANLQINNLKSEDTATYFCARFGSAVDYWGQGTSVTVSS VL: DIVMTQAAFSNPVTLGTSGSISCRSSKSLLHSNGITYLYWYLQKPGQSPQLLIYQMSNLASGVPDRFSSSGSGTDFTLRISRVEAEDVGVYYCAQNLELPRTFGGGTKLEMKR",no binding,–
"ING-1 heavy chain N52Y (Fab, V domains shown) VH: QIQLVQSGPELKKPGETVKISCKASGYTFTKYGMNWVKQAPGKGLKWMGWIYTYTEEPTYGDDFKGRFAFSLETSASTANLQINNLKSEDTATYFCARFGSAVDYWGQGTSVTVSS VL: DIVMTQAAFSNPVTLGTSGSISCRSSKSLLHSNGITYLYWYLQKPGQSPQLLIYQMSNLASGVPDRFSSSGSGTDFTLRISRVEAEDVGVYYCAQNLELPRTFGGGTKLEMKR",no binding,–
"ING-1 heavy chain P58N (Fab, V domains shown) VH: QIQLVQSGPELKKPGETVKISCKASGYTFTKYGMNWVKQAPGKGLKWMGWINTYTEENTYGDDFKGRFAFSLETSASTANLQINNLKSEDTATYFCARFGSAVDYWGQGTSVTVSS VL: DIVMTQAAFSNPVTLGTSGSISCRSSKSLLHSNGITYLYWYLQKPGQSPQLLIYQMSNLASGVPDRFSSSGSGTDFTLRISRVEAEDVGVYYCAQNLELPRTFGGGTKLEMKR",–,0.9
"ING-1 heavy chain T28Q (Fab, V domains shown) VH: QIQLVQSGPELKKPGETVKISCKASGYQFTKYGMNWVKQAPGKGLKWMGWINTYTEEPTYGDDFKGRFAFSLETSASTANLQINNLKSEDTATYFCARFGSAVDYWGQGTSVTVSS VL: DIVMTQAAFSNPVTLGTSGSISCRSSKSLLHSNGITYLYWYLQKPGQSPQLLIYQMSNLASGVPDRFSSSGSGTDFTLRISRVEAEDVGVYYCAQNLELPRTFGGGTKLEMKR",no binding,–
"ING-1 heavy chain T30G (Fab, V domains shown) VH: QIQLVQSGPELKKPGETVKISCKASGYTFGKYGMNWVKQAPGKGLKWMGWINTYTEEPTYGDDFKGRFAFSLETSASTANLQINNLKSEDTATYFCARFGSAVDYWGQGTSVTVSS VL: DIVMTQAAFSNPVTLGTSGSISCRSSKSLLHSNGITYLYWYLQKPGQSPQLLIYQMSNLASGVPDRFSSSGSGTDFTLRISRVEAEDVGVYYCAQNLELPRTFGGGTKLEMKR",no binding,–
"ING-1 heavy chain T30Y (Fab, V domains shown) VH: QIQLVQSGPELKKPGETVKISCKASGYTFYKYGMNWVKQAPGKGLKWMGWINTYTEEPTYGDDFKGRFAFSLETSASTANLQINNLKSEDTATYFCARFGSAVDYWGQGTSVTVSS VL: DIVMTQAAFSNPVTLGTSGSISCRSSKSLLHSNGITYLYWYLQKPGQSPQLLIYQMSNLASGVPDRFSSSGSGTDFTLRISRVEAEDVGVYYCAQNLELPRTFGGGTKLEMKR",–,2
